The record followed here is paper PMC12109034.

Assay [1] has as its target 6xHis::TdPP1a (durum wheat).
Assay [2] has as its target TdPP1-H135A (durum wheat).
Assay [3] has as its target 6xHis::TdPP1a (durum wheat). This is another data set of the same source.
Assay [4] deals with TdPP1-H135A (durum wheat). This is another data set of the same source.
The target of assay [5] is TdPP1-T243M (durum wheat).
In assay [6] the target is TdPP1-H135A (durum wheat). This is another data set of the same source.

Regarding 6xHis-MBP::TdRL1 (natural protein), the percent inhibition of phosphatase activity (pNPP) at three TdRL1 concentrations; 59% at 26 nM (1:1 molar ratio), highest value at the higher concentration in assay [1] was found to be 89.7%. The same molecule returned a percent inhibition of phosphatase activity (pNPP) by TdRL1 at three concentrations; value at high concentrations in assay [2] of 91%. In addition, the figures for the IC50 of inhibition of phosphatase activity (pNPP substrate, 37 °C, 1 μg enzyme) in assay [3], in assay [4] and in assay [5] were 32 nM, 37 nM and 35.6 nM, respectively.

B1: GST::At-I2 (natural protein)
chain: MTEPKRGRVQWDEANIVEIESNKPVRQKITEPKTPYHPMMDDDGSLSPRGRAFDECVDDMQRAEELRNVLNDAAASSSRNSSQGSGGGGWSSSDEEEEEADPMDQDEEGSGSGKNERFNAHRKAHYDEFRKVKELRSSGSFYEEEEEEDDGAKGSKSETTTNSRHTKGGNKELDATKTVSGTSSSSSPELI
On to B1, for which the percent inhibition of phosphatase activity (pNPP) at three At-I2 concentrations; maximum at the highest concentration used in assay [1] is 90.4%. In addition, the percent inhibition of phosphatase activity (pNPP) by At-I2 at three concentrations; highest at high concentration in assay [6] was determined as 100%.
